Legend:
MERS RBD-hFc [1] = target: T1, MERS RBD-hFc (MERS-CoV (isolate EMC/2012)); assay: SPR Biacore, captured mAb, 37 C
MERS RBD-hFc [2] = target: T1, MERS RBD-hFc; assay: SPR (Biacore), hybridoma supernatant antibody captured, MERS RBD-hFc as analyte
MERS RBD-hFc [3] = target: T1, MERS RBD-hFc; assay: SPR Biacore, captured mAb, 25 C
MERS RBD-hFc [4] = target: T1, MERS RBD-hFc; assay: ELISA on coated MERS RBD-hFc, hybridoma supernatant 1:50, absorbance at 450 nm

Binder	Kd (MERS RBD-hFc [1]) [nM]	koff (MERS RBD-hFc [1]) [s⁻¹]	kon (MERS RBD-hFc [1]) [M⁻¹ s⁻¹]	t1/2 (MERS RBD-hFc [1]) [min]	Kd (MERS RBD-hFc [2]) [nM]	t½ (MERS RBD-hFc [2]) [min]	Kd (MERS RBD-hFc [3]) [nM]	koff (MERS RBD-hFc [3]) [s⁻¹]	kon (MERS RBD-hFc [3]) [M⁻¹ s⁻¹]	t1/2 (MERS RBD-hFc [3]) [min]	ELISA Binding (MERS RBD-hFc [4])
H2bM15292N (antibody, V domains shown) VH: QVQLVQSGAEVKKPGSSVKVSCKASGGTFNNYAISWVRQAPGQGLEWMGGIIPFFGTTNYAQKFQDRVTITSDDSTITAYMELSRLRSEDTAVYYCARDEPRRDGYNYYHYYYMDVWGQGTTVTVSS VL: DIQMTQSPSSLSASVGDRVTITCRASQSINSYLNWYQQKPGKAPNLLIYAASSLQSGVPSRFSGSGSGTDFTLTISSLHPEDFATYYCQQSYSTPPITFGQGTRLEIK	0.963	0.000524	544000	22	0.593	67.8	0.34	0.000155	457000	75	2.78
H1M15267N (antibody, V domains shown) VH: QVQLQESGPGLVKPSETLSLTCTVSGGSISSYYWSWIRQPPGKGLEWIGYIYYSGSPNYNPSLKSRVTISVDTSKNQFSLKLTSVTAADTAVYYCARSLNWGPPFDYWGQGTLVTVSS VL: not shown	0.314	0.000745	2.37e+06	16	0.328	94.1	0.181	0.000153	843000	75	2.62
H1H15253P2 (antibody, V domains shown) VH: EVQLVESGGGLVQPGGSLRLSCVVSGFTSRNYAMSWVRQAPGKGLEWVSAISGSGGSTYYADSVKGRFTISRDNPKNTLYLQMNSLRAEDTALYYCAEDPGTSFDYWGQGTLVTVSS VL: not shown	1.44	0.000629	436000	18			0.348	0.000124	356000	93	
H1H15177P (antibody, V domains shown) VH: EVQLVESGGGLVQPGGSLRLSCSASGFTFSSYDMSWVRQAPGKGLEWVSAIRGSGHTTYYADSVKGRFTISRDNSKNTLYLEMNSLRAEDTAVYYCVKDGSIVGFDPWGQGTLVTVSS VL: not shown	1.23	0.000701	568000	16			0.39	0.000192	493000	60	
H1H15233P2 (antibody, V domains shown) VH: EVQLVESGGGLVQPGGSLRLSCAASGFSFSSYGMNWVRQAPGKGLEWVSAISGRGGNTYSADSVKGRFTISRDNSKNTLFLQMNGLRAEDSAFYYCAKVGTYSSSSPFDYWGQGTLVTVSS VL: not shown	0.127	4.74e-05	374000	244			0.229	4.56e-05	199000	253	
H1M15277N (antibody, V domains shown) V domain 1: EVQLLESGGGLVQPGGSLRLSCAASGFTFSSYAMSWVRQAPGKGLEWVSAISGRGGNTYYADSVKGRFTISRDNSKNTLFLQMNTLRAEDTAVYYCAKDRGFGFFDIWGRGTLATVSS V domain 2: not shown	0.671	0.00218	3.24e+06	5	1.72	11.1	0.346	0.00091	2.63e+06	13	2.68
H1M15280N (antibody, V domains shown) VH: EVQLLESGGGLVQPGGSLRLSCAASGFTFSSYAMSWVRQAPGKGLEWVSAISGSGSSTYYADSVKGRFTISRDNSKNTLFLQMNSLRAEDTAVYYCAEGGDVDFDYWGQGTLVTVSS VL: not shown	13.2	0.00657	497000	1.8	6.53	7.4	18.5	0.00525	283000	2.2	2.75
H2aM15281N (antibody, V domains shown) VH: QVQLVQSGAEVKKPGSSVKVSCKASKDTFSSYAISWVRQAPGQGLEWMGGIIPFFGTTTYEQKFQGRVTITTDESTRTAYMELSSLRSEDSAVYYCARDRPCISSAGTRYHYCVMDVWGQGTTVTVSS VL: not shown	0.213	0.000543	2.55e+06	21	2.77	10.4	0.39	0.000818	2.1e+06	14	2.54
H2aM15272N (antibody, V domains shown) VH: QVRLVQSGAEVKKPGSSVKVSCKASGDTFSSYAISWVRQAPGQGLEWMGGIIPFFVTTTYAQNFQGRVTITTDESTRTAYMELSSLRSEDSAVYYCARDRPCISSAGTRYHYCVMDVWGQGTTVTVSS VL: not shown	0.316	0.000634	2e+06	18	2.72	9.5	0.443	0.000733	1.65e+06	16	2.52
H1H15215P (antibody, V domains shown) VH: EVQLVESGGGLVQPGGSLRLSCAASGFTFSTYGMSWVRQAPGKGLEWVSTIIGSGYNTYYSDSVKGRFTMSRDNSKSTLYLQMNSLRAEDTAVYYCTKEGPIIGTTNWGQGTLVTVSS VL: not shown	1.68	0.000233	138000	50			0.671	9.67e-05	144000	119	
H2aM15278N (antibody, V domains shown) VH: QVQLVQSGAEVKKPGASVKVSCKASGYTFTSHGISWVRQAPGQGFEWMGWIGTYNSNTDYAQNFQGRVTMTTDTSTSTAYMELRNLRSDDTAVYYCARERGPYYGMDVWGQGTTVTVSS VL: EIVLAQSPGTLSLSPGERATLSCRASQSVNSNYLAWYQQKPGQAPRLLIYGASSRATGIPDRFSGSGSGTDFTLTISRLEPEDFAVYYCQQYGNSLTFGPGTKVDFK	0.519	0.00113	2.17e+06	10	2.05	13.5	0.506	0.000873	1.72e+06	13	2.42
H2aM15270N (antibody, V domains shown) VH: EVQLLESGGGLEQPGGSLRLSCAASGFTFSSYAMIWVRQAPGKGLEWVSTISGSGVNTYYADSVKGRFTISRDNSKNTLHLQMNSLRAEDTAVYHCAKEGLDCANGVCYNYYGMDVWGQGTTVTVSS VL: DIQMTQSPSSLSASVGDRVTITCRASQSINSFLNWYHQKPGKAPKFLIYSASNLQSGVPSRFSGSGSGTDFTLTISSLQPEDFSTYYCQQSYSIPLTFGGGTKVEIK	0.651	0.00114	1.75e+06	10	1.79	17.3	0.776	0.000605	779000	19	2.04
H2aM15279N (antibody, V domains shown) VH: EVQLLESGGGLVQTGGSLRLSCAASGFTFSNYAMSWVRQAPGKGLEWVSAISDRGGSIYYADSVKGRFTISRDNSKNTKYLQMDSLRAEDTAVYYCAQDRGFGVFDYWGQGTLVTVSS VL: DIQMTQSPSSLSASVGDRVTITCQASQDIGNYLNWFQQRPGKAPNLLIYGASNLETGVPSRFSGGGSGTDFTFTISSLQPEDIATYFCQQYDNLPFTFGPGTKVEIK	0.32	0.000445	1.39e+06	26	0.266	96	0.102	8.91e-05	870000	130	2.18
